T1: His-tagged ECD of mouse 4-1BB (mouse, UniProt P20334 24-187)
T1 construct: also called murine 4-1BB; mu4-1BB; not shown: His tag
T1 sequence: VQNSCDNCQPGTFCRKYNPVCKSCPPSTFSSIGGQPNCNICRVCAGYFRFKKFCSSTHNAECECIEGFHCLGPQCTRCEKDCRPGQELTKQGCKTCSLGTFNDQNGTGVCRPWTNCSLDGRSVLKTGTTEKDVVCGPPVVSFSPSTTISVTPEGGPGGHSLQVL

T2: His-tagged ECD of cynomolgus monkey 4-1BB (cynomolgus monkey, UniProt Q07011 24-186 (human entry))
T2 construct: also called cynomolgus 4-1BB; cyno 4-1BB; not shown: His tag
T2 chain: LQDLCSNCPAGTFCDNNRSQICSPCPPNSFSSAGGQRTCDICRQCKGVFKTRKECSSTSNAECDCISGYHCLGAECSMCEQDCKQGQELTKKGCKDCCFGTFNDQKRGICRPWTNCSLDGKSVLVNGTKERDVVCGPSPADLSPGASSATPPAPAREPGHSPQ

B1: Mouse TABBY9 with mouse IgG1 constant (antibody, V domains shown)
VH: QVQLKQSGPGLVQPSQSLSITCTVSGFSLTSYGVHWVRQSPGKGLEWLGMIWSGGSTDYNAAFISRLSISKDNSKSQVFFKMNSLQADDTALYFCASYGGFYETMDYWGQGTSVTVSS
VL: DIQMTQTTSSLSASLGDRITISCRASQDISNYLNWYQRKPDGTVKLLIYYTSRLHSGVPSRFSGSGSGRDYSLTISNLEQEDIATYFCQQGNTLPYTFGGGTKLEIK
notes: Mouse IgG1; also called TABBY9-mIgG1
B2: 20H4.9-hIgG4 (antibody, V domains shown)
VH: QVQLQQWGAGLLKPSETLSLTCAVYGGSFSGYYWSWIRQSPEKGLEWIGEINHGGYVTYNPSLESRVTISVDTSKNQFSLKLSSVTAADTAVYYCARDYGPGNYDWYFDLWGRGTLVTVSS
VL: EIVLTQSPATLSLSPGERATLSCRASQSVSSYLAWYQQKPGQAPRLLIYDASNRATGIPARFSGSGSGTDFTLTISSLEPEDFAVYYCQQRSNWPPALTFGGGTKVEIKR
B3: hu106-4-hIgG4 (antibody, V domains shown)
VH: EVQLVQSGAEVKKPGSSVKVSCKASGYTFTSYYIYWVRQAPGQGLEWIGNIWPGNGGTFYGEKFMGRATFTADTSTSTAYMELSSLRSEDTAVYYCARRPDYSGDDYFDYWGQGTLVTVSS
VL: SVELTQPPSVSVSPGQTARITCKLNSGNIGSYYVHWYQQKPGQAPVTMIYRDDKRPDGIPERFSGSSDSSSNSAFLTISGVQAEDEADYYCHSYDSTITPVFGGGTKLTVL
notes: Human IgG4 constant region with the S228P mutation; also called hu106.1x.3x
B4: hu106-7-hIgG4 (antibody, V domains shown)
VH: EVQLVESGGGLVQPGGSLRLSCAASGYTFTSYYIYWVRQAPGKGLEWIGNIWPGNGGTFYGEKFMGRATFSADTSKNTAYLQMNSLRAEDTAVYYCARRPDYSGDDYFDYWGQGTLVTVSS
VL: B3 VL
notes: Human IgG4 constant region with the S228P mutation; also called hu106.1y.3x
B5: hu107-1-hIgG4 (antibody, V domains shown)
VH: EVQLVQSGAEVKKPGSSVKVSCKASDYTFNDYWVSWVRQAPGQGLEWIGEIYPNSGATNFNGKFRGRATLTVDNSASTAYMELSSLRSEDTAVYYCTREYTRDWFAYWGQGTLVTVSS
VL: DVVLTQSPLSLPVTLGQPASISCRSSQSLLDSDGNTYLYWFQQRPGQSPRRLIYLVSNLGSGVPDRFSGSGSGTDFTLKISRVEAEDVGVYYCMQPTHAPYTFGQGTKLEIK
notes: Human IgG4 constant region with the S228P mutation; also called hu107.1x.1x
B6: hu107-3-hIgG4 (antibody, V domains shown)
VH: B5 VH
VL: DVQLTQSPSSLSASVGDRVTITCRSSQSLLDSDGNTYLYWFQQKPGKAPKRLIYLVSNLGSGVPSRFSGSGSGTDFTLTISSLQPEDFATYYCMQPTHAPYTFGQGTKVEIK
notes: Human IgG4 constant region with the S228P mutation; also called hu107.1x.1y
B7: MOR-7480.1-hIgG2 (antibody, V domains shown)
VH: EVQLVQSGAEVKKPGESLRISCKGSGYSFSTYWISWVRQMPGKGLEWMGKIYPGDSYTNYSPSFQGQVTISADKSISTAYLQWSSLKASDTAMYYCARGYGIFDYWGQGTLVTVSS
VL: SYELTQPPSVSVSPGQTASITCSGDNIGDQYAHWYQQKPGQSPVLVIYQDKNRPSGIPERFSGSNSGNTATLTISGTQAMDEADYYCATYTGFGSLAVFGGGTKLTVLG
B8: hu106-1-hIgG1 (antibody, V domains shown)
VH: B3 VH
VL: NVMLTQPHSVSESPGKTVTISCKLNSGNIGSYYVHWYQQRPGSSPTTMIYRDDKRPDGVPDRFSGSIDSSSNSASLTISGLKTEDEADYYCHSYDSTITPVFGGGTKLTVLG
notes: 310 is written here; Human IgG1 constant region bearing L234A and L235A; also called hu106.1x.1x
B9: hu107-1-hIgG1 (antibody, V domains shown)
VH: B5 VH
VL: DVVLTQSPLSLPVTLGQPASISCRSSQSLLDSDGNTYLYWFQQRPGQSPRRLIYLVSNLGSGVPDRFSGSGSGTDFTLKISRVEAEDVGVYYCMQPTHAPYTFGQGTKLEIKR
notes: 312 is written here; Human IgG1 constant region bearing L234A and L235A; also called hu107.1x.1x

target: T3, His-tagged ECD of human 4-1BB (human, UniProt Q07011 24-184); experiment: SPR (Biacore)
T3 construct: also called hu4-1BB; 4-1BB ECD; not shown: His tag

Molecule	binding result
B1	binds

target: T3, His-tagged ECD of human 4-1BB; experiment: SPR (Biacore), captured antibody, His-tagged ECD analyte
Protocol: (§1) The binding kinetics of the 4-1BB antibodies for target proteins were determined by using a Biacore T200 surface plasmon resonance system (BlAcore, GE Healthcare, Piscataway, N.J.). Polyclonal goat anti-human Fc antibody (Pierce 31125) was first immobilized to the biosensor surface using standard amine coupling reagents (N-ethyl-N′-dimethylamino-propylcarbodiimide, EDC; N-hydroxysuccinimide, NHS; and ethanolamine HCl, pH 8.5), followed by the capture of antibodies on parallel surfaces at a low flow rate of 10 μL/min. No capture of the antibody was made on the reference surface to serve as a negative control. Antigen (His-tagged ECD of 4-1BB derived from human, cynomolgus monkey, or mouse) was injected to all flow cells at a flow rate of 80 μL/min for three minutes to monitor association followed by a 10-20-minute flow of HBS-EP+running buffer (10 mM HEPES, 150 mM sodium chloride, 3mM EDTA, 0.05% Tween-20, pH 7.5) to monitor the dissociation phase. […] The surface was regenerated by two consecutive injections of 10 mM glycine (pH 1.5) at a flow rate of 60 μL/min at the end of each cycle. Binding data were fit to the 1:1 Langmuir model to extract binding constants from the BlAevaluate software. Double referencing was applied in each analysis to eliminate background responses from the reference surface and buffer only control.

Molecule	Kd	koff	kon
B2	4.9 nM	0.0021 s⁻¹	420000 M⁻¹ s⁻¹
B3	200 nM	0.042 s⁻¹	210000 M⁻¹ s⁻¹
B4	420 nM	0.047 s⁻¹	110000 M⁻¹ s⁻¹
B5	0.58 nM	8e-05 s⁻¹	140000 M⁻¹ s⁻¹
B6	0.81 nM	0.00011 s⁻¹	130000 M⁻¹ s⁻¹

target: T1, His-tagged ECD of mouse 4-1BB; experiment: as above
Protocol: as §1

Molecule	Kd	koff	kon	binding result
literature anti-4-1BB antibody 1D8	3.9 nM	0.008 s⁻¹	2.1e+06 M⁻¹ s⁻¹	
literature anti-4-1BB antibody 3H3	0.98 nM	0.0057 s⁻¹	5.8e+06 M⁻¹ s⁻¹	
B2				no binding (tested: antigen between 100 nM and 3.7 nM)
B7				no binding (tested: antigen between 100 nM and 3.7 nM)
B3	9.3 nM	0.015 s⁻¹	1.6e+06 M⁻¹ s⁻¹	
B4	17 nM	0.037 s⁻¹	2.2e+06 M⁻¹ s⁻¹	
B5	4 nM		330000 M⁻¹ s⁻¹	
B6	5.1 nM	0.0016 s⁻¹	320000 M⁻¹ s⁻¹	

Target: T2, His-tagged ECD of cynomolgus monkey …
Experiment: as above
Protocol: as §1

Molecule	Kd	koff	kon
B3	180 nM	0.052 s⁻¹	280000 M⁻¹ s⁻¹
B8	170 nM	0.1 s⁻¹	620000 M⁻¹ s⁻¹
B5	0.22 nM	5.2e-05 s⁻¹	
B6	0.29 nM	7e-05 s⁻¹	240000 M⁻¹ s⁻¹
B9	0.13 nM	4e-05 s⁻¹	310000 M⁻¹ s⁻¹
